Among the data in article doi:10.1101/2024.01.08.574586 are Kd values, retold here.

The experiment has as its target recombinant biotinylated HIP1 protein (UniProt O00291). The experiment in a line: SPR.
Sequence of UniProt O00291 (O00291 whole entry): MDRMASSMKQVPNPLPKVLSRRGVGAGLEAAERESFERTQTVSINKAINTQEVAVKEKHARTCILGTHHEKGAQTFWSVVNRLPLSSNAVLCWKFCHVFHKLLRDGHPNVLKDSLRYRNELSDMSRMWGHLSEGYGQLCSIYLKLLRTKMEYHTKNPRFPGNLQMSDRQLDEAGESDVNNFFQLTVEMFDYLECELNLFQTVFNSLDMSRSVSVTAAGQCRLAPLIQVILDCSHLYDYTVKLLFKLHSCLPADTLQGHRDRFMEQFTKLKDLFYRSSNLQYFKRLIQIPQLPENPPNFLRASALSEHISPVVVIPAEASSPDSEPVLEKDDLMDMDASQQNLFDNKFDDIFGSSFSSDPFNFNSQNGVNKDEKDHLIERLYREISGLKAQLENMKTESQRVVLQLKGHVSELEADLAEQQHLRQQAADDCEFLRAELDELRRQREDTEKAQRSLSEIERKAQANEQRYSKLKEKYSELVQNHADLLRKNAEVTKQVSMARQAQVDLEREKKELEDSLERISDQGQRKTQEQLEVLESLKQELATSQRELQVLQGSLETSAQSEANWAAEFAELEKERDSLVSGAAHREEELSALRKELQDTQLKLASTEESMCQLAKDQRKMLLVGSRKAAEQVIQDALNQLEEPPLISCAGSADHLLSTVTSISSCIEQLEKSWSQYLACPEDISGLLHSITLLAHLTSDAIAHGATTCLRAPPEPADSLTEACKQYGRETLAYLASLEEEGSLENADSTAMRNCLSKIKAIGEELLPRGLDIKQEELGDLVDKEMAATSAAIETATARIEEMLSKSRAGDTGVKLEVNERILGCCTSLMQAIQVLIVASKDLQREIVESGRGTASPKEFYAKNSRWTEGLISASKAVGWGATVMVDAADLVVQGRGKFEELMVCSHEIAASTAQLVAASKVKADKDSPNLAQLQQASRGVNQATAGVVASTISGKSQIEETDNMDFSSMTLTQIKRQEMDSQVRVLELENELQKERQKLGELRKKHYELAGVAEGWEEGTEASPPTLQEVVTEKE
On to “K48-linked Ub2 (SPR analyte) (from UniProt P0CG48)”, for which the equilibrium dissociation constant (Kd) is 137 µM.

For “K48-linked Ub3 (SPR analyte) (from UniProt P0CG48)”, the Kd is 66.2 µM. The same measure for “K48/K63-linked branched Ub3 (SPR analyte) (from UniProt P0CG48)”: 0.07 µM. Take “K63-linked Ub2 (SPR analyte) (from UniProt P0CG48)”: the Kd is 1.89 µM. For “K63-linked Ub3 (SPR analyte) (from UniProt P0CG48)”, the dissociation constant Kd is 1.55 µM. The same measure for “mono Ub (SPR analyte) (from UniProt P0CG48 1-76) (natural protein)”: 197 µM.
